The record followed here is the RNAGym collection of RNA variant scans (doi:10.1073/pnas.2313332121).

B1: TPR 5TU (parent)
chain: GGAUCUUCUCGAUCUAACAAAAAAGACAAAUCUGCCACAAAGCUUGAGAGCAUCUUCGGAUGCAGAGGCGGCAGCCUUCGGUGGCGCGAUAGCGCCAACGUUCUCAACUAUGACACGCAAAACGCGUGCUCCGUUGAAUGGAGUUUAUCAUG

Fewer inactive variants are shown than the library holds.

The variants in the data set derive from B1. Description: polymerase ribozyme fitness, log enrichment relative to wild type (log ratio); higher = more active; in vitro selection for triplet polymerase activity. The essentials: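 Each subunit of a heterodimeric triplet polymerase ribozyme was mutagenized into a library by PCR, transcribed, and subjected to one round of in vitro selection, run in triplicate. Libraries were annealed with a biotinylated primer, the partner subunit and triplets, incubated frozen at −7 °C, and extended constructs were gel-excised, captured on streptavidin beads and recovered by RT-PCR. Input and output libraries were sequenced on Illumina, keeping genotypes with ≥10 input reads and ≥1 read per output. Fitness is log base 2 of genotype enrichment divided by wild-type enrichment, from inverse-variance-weighted replicate averages.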
Turning to GGAUCUUCUCGAUCCAACAAAAAAGACAAAUCUGCCACAAAGCUUGAGAGCAUCUGCGGAUGUAGAGGCGGCAGCCUUCGGUGGCGCGAUAGCGAAAACGUUCUCGACUAUGACACGCAAAACGCGUGCUCCGUUGAAUGGAGUUUAUCAUG [U15C U56G C63U C95A C96A A106G], the “polymerase ribozyme fitness (log ratio)” value is -1.5.

GGAUCUUCUCGAUCUAACAAAAAAUACAUAUCUGCCAUAAAGCUUGAGAGCAUCUUCGGAUGCAGAGGCCGCAGCCUUCGGUGGCGCGAUAGCGCCAACGUUCUCAACUAUGACACGCAAAACGCGUGCUCCGUUGAAUGGAGUUUAUCAUG [G25U A29U C38U G70C]: the “polymerase ribozyme fitness (log ratio)” value was no more than -4.2.

As for GGAUCUUCUCGAGCUAACAAAAAAGAUAAAUGUGCCACAAAGCUUGAGAGCAUCUGCGGAUGCAGAGGCGGCAGCCUUCGGUGGCGCGAUAGUGCCAACGUUCUCAACUAUGACACGCAAAACGCGUGCUCCGUUGAAUGGAGUUUAUCAUG [U13G C27U C32G U56G C93U], the “polymerase ribozyme fitness (log ratio)” value is no more than -4.2.

As to GGAUCUUCUCGAUCUAACAAAAAAGACAAAUCUGCCACAAAGCUUGACAGCAUCUUCGGAUGCAGAGACGGCAGCCUUUGGUGGCGCGAUAGCGCCAAAGUUCUCAACUAUGACACGCAAAACGCGUGCUCCGUUGAAUGGAGUUUAUCAUG [G48C G68A C79U C99A], the “polymerase ribozyme fitness (log ratio)” value was no more than -4.2.

With GGAUCUUCUUGAGAUAACAAAAAAGACCAAUCUGCCACAAAGCUUGAGAGCAUUUUCGGAUGCAGAGGCGGCAGCCUUCGGUGGCGCGAUACCGCCAACGUUCUCAACUAUGUCACGCAAAGCGCGUGUUCCGUUGAAUGGAGUUUAUCAUG [C10U U13G C14A A28C C54U G92C A113U A122G C129U], the “polymerase ribozyme fitness (log ratio)” value was no more than -4.2.

Consider GGAUCUUAUCGAUCUAACAAAAAAGACAAAUCUGCCACAAAGCUUGAGAGCAUUUUCGGAUGCAGAGGCGGCAGCCUUCGGUGGCGCGAUAGCGCCAACGUUCUCAACUAUGACACGCAAAACGCGUGCUCCGUUGAAUGGAGUUUAUCAUG [C8A C54U], for which the “polymerase ribozyme fitness (log ratio)” value was -3.64.

In the case of GGAUCUUCUCGAUCUAACAAAAAAGACAAACCUGCCACAAAGCUUGAGAGCAUCUUCGGAUGCAGAGGCGGCAGCCUUCGGUCGCGCGAUAGCGCCAACGUUCUCAUCUAUGACACGCAAAACGCGUGCUCCGUUGAAUGGAGUUUAUCAUG [U31C G83C A107U], the “polymerase ribozyme fitness (log ratio)” value was -4.

Regarding GGAUCUUCUCGAUCUAACAAAAAAGACAAAUCUGCCACAAAGCUUGAGAGCAUCUCCGGAUGCAGAGGCGGCAGCCUUCGGUUGCGCGAUAGCGCCAACGUUCUCAACUAUGACACGCAAAACGCGUGCUCCGUUGAAUGGAGUUUAUCAUG [U56C G83U], the “polymerase ribozyme fitness (log ratio)” value is -0.525.

GGAUGUUCUCGAUCUAACAAAAAAUAGAAAUCUGCCGCAAAGCUUAAGAGCAUCUUCGGAAGCAGAGGCGGCAGCCUUCGGUGGCGCGAUAGCGCUAACGUUCUCAACUAUGACACGCAAAACGCGUGCUCCGUUGAAUGGAGUUUAUCAUG [C5G G25U C27G A37G G46A U61A C96U]: the “polymerase ribozyme fitness (log ratio)” value is -4.17.

Consider GGAUCUUCUCGAUCUAACAAAAAAGACAAAUAUGCCACAAAGCUUGAGAGCAUCUUCGGAUGCAGAGGCGGCAGCCUUCGGUGGCGCGAUAGCACCAACGUUCUCAACUAUGACACGCAAAACGCGUGCUCCGUUGAAUGGAGUUUAUCAUG [C32A G94A], for which the “polymerase ribozyme fitness (log ratio)” value is -4.

For GGAUCUUCUCGAUCUAACAAAAAAGACAAAUCUGCCACAAAGCUUGAGAGCCUCUUCGGAUGCAGAGGCGGCAGCCUUCGGUGGCGCGAUAGCGCCAACGUUCUCAACUAUGACGCGCAAAACGCGUGCUCCGUUGAAUGGAGUUUAUCAUG [A52C A115G], the “polymerase ribozyme fitness (log ratio)” value was -2.09.

With GGAUCUUCUCGAUCUAACUAAAAAGACAAAUCUGCCACAAAGCUUGAGAGCAUCUUCGGAUGCAGAGCCGGCAGCCUUCGGUGGUGCGAUAGCGCCAACGUUCUCAACUAUGACACGCAAAACGCGUGCUCCGUUGAAUGGAGUUUAUCAUG [A19U G68C C85U], the “polymerase ribozyme fitness (log ratio)” value was no more than -4.2.

GGAUCUUCUCGAUCUAACAAAACAGAUAAAUCUGCCACAAAGCUUGCGAGCAUCUUAGGAUGCAGAGGCGGCGGCCUUCGGUGGCGCGAUGGCGCCAACGGUCUCAACUAUGACACGCAAAACGCGUGCUCCGAUGAAUGGAGUUUAUCAUG [A23C C27U A47C C57A A73G A91G U101G U134A]: the “polymerase ribozyme fitness (log ratio)” value was no more than -4.2.

Turning to GGAUCUUCUCGAUCUAACAAAAAAGAAAAAUCUGCCACAAAGCUUGAGAGCAUCUUCGGAUGCAGAGGCGGCAGCCUUUGGUGGCGCGAUAGCGCCAACGUUCUCAACUAUGACACGCAAAACGCGUGCUCCGUUGAAUGGAGUUUAUCAUG [C27A C79U], the “polymerase ribozyme fitness (log ratio)” value was no more than -4.2.

With GGAUCUUUUCGAUCUAGCAAAAAAGACAAAUCUGCAACAAAGCUUGAGACCAUCUUCGGAUGCAGAGGCGGCAGCCUUCGGUGGCGCGAUAGCGCCAACGUUCUCAACUAUGACGCGCAAAACGCGUGCUCCGUUGAAUGGAGUUUAUCAUG [C8U A17G C36A G50C A115G], the “polymerase ribozyme fitness (log ratio)” value was no more than -4.2.

In the case of GGAUCUGCUCGAUCUAACAAGAAAGACAAAUCUGCCACAAAGCUUGAGAGCAUCUUCGGAGGCAGAGGCGGCAGCCUUCGGUGGUGAGAUAGCGCCAACGUUCUCCACUAUGACACGCAAAACGCGUGCUCCGUUGAAUGGAGUUUAUCAUG [U7G A21G U61G C85U C87A A106C], the “polymerase ribozyme fitness (log ratio)” value was no more than -4.2.

Turning to GGAUCUUCUCGAUCUAACAAAAAACACAAAUCUGCCACAAAGCUUGAGAGCAUCUUCGGAUGCUGAGGCGGCAGCCUUCGGUGGCGCGAUAGCGCCAACGUUCUCAACUAUGACACGCAAAACGGGUGCUCCGUUGAAUGGAGUUUAUCAUG [G25C A64U C125G], the “polymerase ribozyme fitness (log ratio)” value was no more than -4.2.

Take GGAUCUUCUCGAUGUAACAAAAAGGGCAAAUCUGCCACCAAGCUUGAGAGCAUCUUCGGAUGCAGCGGCGGCAGCCUUCGGUGGCGCGAUAGCGCCAACGUUCUUAUCUAUGACACGCAAAACGCGUGCUCCGUUGAAUGGAGUUUAUCAUG [C14G A24G A26G A39C A66C C105U A107U]: the “polymerase ribozyme fitness (log ratio)” value was no more than -4.2.

On to GGAUCUUCUCGAUCUAACAAAAAAGACAAAUCUGCCACAAAGCUUGAGAGCAUCCUGGGAUGCAGAGGCGGCAGCCUUCGGUGGCGCGAUAGCGCCAACGUUCUCAACUAUGACACGCAAAACGCGUGCUCCGUUGAAUGGAGUUUAUCAUG [U55C C57G], for which the “polymerase ribozyme fitness (log ratio)” value stood at 0.125.
